In patent publication US20170198014A1, “POLYPEPTIDES AND THEIR USE FOR TREATING INFLUENZA” ([…] ITS CENTER FOR COMMERCIALIZATION, priority 2014, published 2017):

Assays:
[1] = biological target: H1 (A/Solomonislands/3/2006) (Influenza A virus, UniProt A7UPX0); settings: read-out: affinity constant via yeast surface display
[2] = biological target: H1 (A/NewCaledonia/20/1999) (Influenza A virus, UniProt Q6WG00); settings: read-out: affinity constant via yeast surface display
H3 (A/Hong Kong/1/1968) = H3 (A/Hong Kong/1/1968) (Influenza A virus, UniProt Q91MA7); settings: read-out: affinity constant via yeast surface display
H2 (A/Adachi/2/1957) = H2 (A/Adachi/2/1957) (Influenza A virus, UniProt B5UA22); settings: read-out: affinity constant via yeast surface display
H3N2 A/Victoria/361/2011 [3] = format: binding, Influenza A
H2N2 A/Adachi/2/1957 = H2N2 A/Adachi/2/1957 (Influenza A virus, UniProt B5UA22); settings: read-out: Kd (binding constant)
H3N2 A/Victoria/361/2011 [4] = format: binding, Influenza A; remark: listed apart in the source
[5] = biological target: HA of H3N2 A/Hong Kong/1/1968 (Influenza A virus, UniProt Q91MA7); settings: read-out: Kd (binding constant)
H1, H2 and H3 = format: binding, Influenza A
[6] = biological target: H1N1 A/New Caledonia/20/1999 (Influenza A virus, UniProt Q6WG00); settings: read-out: Kd (binding constant)

Sequence of H1 (A/Solomonislands/3/2006) (A7UPX0 1-565): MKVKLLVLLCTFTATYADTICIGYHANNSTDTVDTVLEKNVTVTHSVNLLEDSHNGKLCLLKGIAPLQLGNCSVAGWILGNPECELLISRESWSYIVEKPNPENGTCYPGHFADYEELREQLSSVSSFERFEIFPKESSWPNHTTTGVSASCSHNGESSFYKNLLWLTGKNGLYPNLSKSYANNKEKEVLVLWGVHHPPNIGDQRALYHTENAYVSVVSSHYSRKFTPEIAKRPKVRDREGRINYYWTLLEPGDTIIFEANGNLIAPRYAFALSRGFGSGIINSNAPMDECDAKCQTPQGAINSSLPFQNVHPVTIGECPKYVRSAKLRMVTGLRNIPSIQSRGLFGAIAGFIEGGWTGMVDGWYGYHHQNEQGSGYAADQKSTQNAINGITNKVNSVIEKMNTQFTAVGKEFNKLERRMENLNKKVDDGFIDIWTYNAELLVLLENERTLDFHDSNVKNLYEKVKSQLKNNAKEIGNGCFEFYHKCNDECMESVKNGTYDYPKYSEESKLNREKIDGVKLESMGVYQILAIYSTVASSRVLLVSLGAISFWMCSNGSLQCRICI

Work on “GIVNVPN(P/C)NTTKYQQLARSAIAVYNYHQNAHLEFVENLN(V/C)KEQIAGKTMYYITLAATDDAGKKKIYKAKVGVVESAGWEGVEEFKLV [52solo2]” yielded a Kd [1] of 0.0017 µM and a Kd [2] of 0.0091 µM.
“GIVNVPN(P/C)NTTKYQQLARRAIAIYNNNQNAHLEFVENLN(V/C)KEQTGLGIMYYITLAATDDAGKKKIYKAKIAVVESAGWVAVSEFKLV [52Sing2]” showed a Kd [1] of 0.0172 µM and a Kd [2] of 0.0449 µM.
“GIVNVPN(P/C)NTTKYQQLARSAIAIYNYHQNAHLEFVENLN(V/C)KEQVGGMNMYYITLAATDDAGKKKIYKAKVGVVESAGWKGVEEFKLV [52solo1]” was tested, and the Kd (H3 (A/Hong Kong/1/1968)) was 0.0357 µM, the Kd [1] was 0.0018 µM and the Kd [2] was 0.0207 µM. For the same substance, the Kd (H2 (A/Adachi/2/1957)) was > 0.35 µM.
For “GIVNVPN(P/C)NTTKYQQLARSAIAIYNNHQNAHLEFVENLN(V/C)KEQVSYGAMYYITLAATDDAGKKKIYKAKVGVVESAGWVGVEEFKLV [52alt1-3]”, the Kd (H3 (A/Hong Kong/1/1968)) was 0.003 µM and the Kd (H2 (A/Adachi/2/1957)) was 0.0085 µM.
With “GIVNVPN(P/C)NTTKYQQLARSAIAIYNYHQNAHLEFVENLN(V/C)KEQLGEGDMYYITLAATDDAGKKKIYKAKIGVVESAGWTGVEEFKLV [52NC-2]” the “Kd (binding constant)” value (H3N2 A/Victoria/361/2011 [3]) was “could not be detected”, the Kd (H2N2 A/Adachi/2/1957) was 0.289 µM and the Kd (H3 (A/Hong Kong/1/1968)) was 0.0039 µM. For the same substance, the Kd [1] was 0.0044 µM, the “binding by yeast display titrations” value (H3N2 A/Victoria/361/2011 [4]) was “could not be detected” and the Kd [5] was 0.18 µM. For the same substance, the “binding to HA subtypes” value (H1, H2 and H3) was “binding to all three subtypes H1, H2 and H3”, the Kd [6] was 0.534 µM and the Kd [2] was 0.0272 µM. It also gave a Kd (H2 (A/Adachi/2/1957)) of 0.0096 µM.
